Test results taken from patent publication US20100247549A1.

How the values were obtained:
[1] = target: Envelope glycoprotein (E) of antigenic variant DENV-4 v4 (Leu for Pro at position 176 in E) (dengue virus type 4) (UniProt P09866)
[2] = target: Envelope glycoprotein (E) of parental DENV-4 (FRhL) (dengue virus type 4) (UniProt P09866)
[3] = target: Envelope glycoprotein (E) of antigenic variant DENV-4 v3 (Glu for Lys at position 174 in E) (dengue virus type 4) (UniProt P09866); assay: cell-based or functional assay
[4] = target: Envelope glycoprotein (E) of antigenic variant DENV-4 v4 (Leu for Pro at position 176 in E) (dengue virus type 4) (UniProt P09866); assay: cell-based or functional assay
[5] = target: Fc receptors on K562 cells; assay: cell-based or functional assay

Substance	Kd [1]	Kd [2]	PRNT50 titer [3]	PRNT50 titer [4]	enhancing activity of DENV-4 infection in K562 cells, % of cells infected [5]
Humanized IgG 5H2 ΔD (IgG1 5H2 with a 9-amino-acid deletion, positions 231-239, at the N-terminus of the CH2 domain) (antibody)	0.32 nM	0.23 nM	> 10 µg/mL	0.5 µg/mL	
IgG 1A5 ΔA (replacement amino acids at 327, 330 and 331 from the Fc of IgG4) (from UniProt P01857 1-330) (antibody)					37.6%
IgG 1A5 ΔB (replacement amino acids at 233-236 from the Fc of IgG2) (from UniProt P01857 1-330) (antibody)					24%
IgG 1A5 ΔC (replacements of both variants ΔA and ΔB) (from UniProt P01857 1-330) (antibody)					18.8%
